Key:
[1] = molecular target: selectins on endothelium; test: cell-based or functional assay
[2] = molecular target: recombinant human P-selectin Fc chimera (human) (UniProt P16109); test: Biacore; biotinylated glycopeptide on streptavidin chip, P-sel-Ig flowed
[3] = molecular target: recombinant mouse P-selectin Fc chimera (mouse) (UniProt Q01102); test: as above
[4] = molecular target: recombinant human L-selectin Fc chimera (human) (UniProt P14151); test: flow cytometry; inhibition of human L-selectin Fc chimera binding to human U-937 cells
[5] = molecular target: recombinant human P-selectin Fc chimera (human) (UniProt P16109); test: flow cytometry; inhibition of human P-selectin Fc chimera binding to human U-937 cells
[6] = molecular target: recombinant mouse L-selectin Fc chimera (mouse) (UniProt P18337); test: flow cytometry; inhibition of mouse L-selectin Fc chimera binding to murine neutrophils
[7] = molecular target: recombinant mouse P-selectin Fc chimera (mouse) (UniProt Q01102); test: flow cytometry; inhibition of mouse P-selectin Fc chimera (2 µg/mL) binding to murine PMN
[8] = molecular target: recombinant human P-selectin Fc chimera (human) (UniProt P16109); test: Biacore; biotinylated glycopeptide on streptavidin chip, P-sel-Ig (2.5 to 60 µg/mL) flowed
[9] = molecular target: recombinant human P-selectin Fc chimera (human) (UniProt P16109); test: flow cytometry; inhibition of human P-selectin Fc chimera binding to human peripheral blood PMN
[10] = molecular target: recombinant human P-selectin Fc chimera (human) (UniProt P16109); test: flow cytometry; inhibition of human P-selectin Fc chimera binding to human peripheral blood monocytes
[11] = molecular target: recombinant mouse P-selectin Fc chimera (mouse) (UniProt Q01102); test: Biacore; biotinylated glycopeptide captured on a streptavidin chip, mP-sel-Ig flowed over (trace shown at 20 µg/ml) [lower middle panel 'mP-sel-Ig (20 µg/ml)' (E in the legend]
[12] = molecular target: recombinant human P-selectin Fc chimera (human) (UniProt P16109); test: comparator value given with the Biacore results; method not stated

Sequence of recombinant human P-selectin Fc chimera (human) (P16109 42-771, change not shown): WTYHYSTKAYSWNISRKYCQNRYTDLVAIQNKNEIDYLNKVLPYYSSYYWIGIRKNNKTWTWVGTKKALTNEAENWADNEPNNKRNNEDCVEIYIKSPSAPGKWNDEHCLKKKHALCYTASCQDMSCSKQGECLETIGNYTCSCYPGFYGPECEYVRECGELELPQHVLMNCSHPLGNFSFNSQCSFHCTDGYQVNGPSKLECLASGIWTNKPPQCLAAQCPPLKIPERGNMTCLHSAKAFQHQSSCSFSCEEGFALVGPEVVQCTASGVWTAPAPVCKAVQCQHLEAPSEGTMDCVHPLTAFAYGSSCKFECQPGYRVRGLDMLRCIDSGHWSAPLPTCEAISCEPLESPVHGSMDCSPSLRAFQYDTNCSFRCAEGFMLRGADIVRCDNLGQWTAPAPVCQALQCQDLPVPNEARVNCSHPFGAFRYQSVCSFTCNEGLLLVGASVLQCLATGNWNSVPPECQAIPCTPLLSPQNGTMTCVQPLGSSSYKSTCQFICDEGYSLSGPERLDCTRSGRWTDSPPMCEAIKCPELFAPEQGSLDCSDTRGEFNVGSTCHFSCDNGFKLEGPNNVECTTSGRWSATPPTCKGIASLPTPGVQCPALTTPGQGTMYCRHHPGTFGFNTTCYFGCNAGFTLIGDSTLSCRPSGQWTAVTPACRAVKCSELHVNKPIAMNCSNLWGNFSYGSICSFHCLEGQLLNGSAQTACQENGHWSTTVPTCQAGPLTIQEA
Sequence of recombinant mouse P-selectin Fc chimera (mouse) (Q01102 42-709, change not shown): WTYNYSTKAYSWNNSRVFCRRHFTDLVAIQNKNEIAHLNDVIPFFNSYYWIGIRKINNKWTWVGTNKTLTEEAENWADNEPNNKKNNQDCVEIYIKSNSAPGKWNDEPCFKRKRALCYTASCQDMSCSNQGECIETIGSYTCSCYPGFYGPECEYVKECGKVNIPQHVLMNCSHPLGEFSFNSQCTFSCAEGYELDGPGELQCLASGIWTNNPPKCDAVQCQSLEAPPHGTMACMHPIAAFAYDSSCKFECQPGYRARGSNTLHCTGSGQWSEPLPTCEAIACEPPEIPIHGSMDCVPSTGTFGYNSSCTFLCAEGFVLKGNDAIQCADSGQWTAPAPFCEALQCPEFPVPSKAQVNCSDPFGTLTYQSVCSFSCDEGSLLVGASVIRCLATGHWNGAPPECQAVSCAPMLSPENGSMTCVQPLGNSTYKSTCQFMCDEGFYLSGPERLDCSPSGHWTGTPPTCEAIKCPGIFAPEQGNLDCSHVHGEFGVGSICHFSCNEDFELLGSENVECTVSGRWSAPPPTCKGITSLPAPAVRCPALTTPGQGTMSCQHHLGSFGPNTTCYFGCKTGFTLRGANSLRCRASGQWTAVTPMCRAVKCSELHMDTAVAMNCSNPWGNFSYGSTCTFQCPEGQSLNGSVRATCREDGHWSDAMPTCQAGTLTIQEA
Sequence of recombinant human L-selectin Fc chimera (human) (P14151 39-332, change not shown): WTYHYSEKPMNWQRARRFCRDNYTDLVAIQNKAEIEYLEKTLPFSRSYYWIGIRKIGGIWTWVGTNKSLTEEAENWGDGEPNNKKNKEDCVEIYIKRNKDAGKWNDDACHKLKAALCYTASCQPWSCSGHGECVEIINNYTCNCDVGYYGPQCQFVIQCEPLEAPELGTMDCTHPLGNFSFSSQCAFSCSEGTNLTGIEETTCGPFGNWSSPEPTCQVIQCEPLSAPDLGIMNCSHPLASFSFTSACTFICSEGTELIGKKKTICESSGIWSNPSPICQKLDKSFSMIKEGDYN
Sequence of recombinant mouse L-selectin Fc chimera (mouse) (P18337 39-332, change not shown): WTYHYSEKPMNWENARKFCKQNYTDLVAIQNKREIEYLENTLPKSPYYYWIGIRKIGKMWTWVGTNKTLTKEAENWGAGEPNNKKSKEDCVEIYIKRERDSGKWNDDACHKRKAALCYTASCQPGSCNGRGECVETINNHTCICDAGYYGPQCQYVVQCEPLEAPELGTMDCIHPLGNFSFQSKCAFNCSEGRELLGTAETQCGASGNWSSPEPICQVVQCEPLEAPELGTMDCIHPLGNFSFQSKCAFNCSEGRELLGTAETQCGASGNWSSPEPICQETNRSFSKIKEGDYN

Work on GSnP-6 (peptide) yielded a mean leukocyte rolling velocity (intravital microscopy, murine cremaster venules, GSnP-6 IV) [1] of 74.9 µm/s, a kon [2] of 310000 M⁻¹ s⁻¹ and a fold difference of Kd against human P-selectin [3] of 9 fold. The kon [3] was 49000 M⁻¹ s⁻¹, the IC50 [4] was 30 µM and the IC50 [5] was 8 µM. It also gave an IC50 [6] of over 50 µM, an IC50 [7] of 15 µM and a Kd [8] of 0.022 µM. The IC50 [9] was 30 µM, the IC50 [10] was 30 µM and the Kd [11] was 0.186 µM.
Work on “native PSGL-1 (from UniProt Q14242 42-412) (ligand)” yielded a Kd [12] of 0.073 µM.
